Experimental data: patent US20190381086A1, “INHIBITION OF NEDDYLATION USING GLYCYL-tRNA SYNTHETASE INHIBITORS” (The Scripps Research Institute, priority 2015, published 2019)
pKd: −log10 of the molar value.

Columns and labels:
[1] = target: N-terminal GST-tagged GlyRS (human) (UniProt P41250); experiment: biolayer interferometry (Octet), GlyRS immobilized
[2] = target: N-terminal GST-tagged GlyRS (human) (UniProt P41250); experiment: biolayer interferometry (Octet), GlyRS immobilized, 30°C

Sequence of N-terminal GST-tagged GlyRS (human) (P41250 55-739): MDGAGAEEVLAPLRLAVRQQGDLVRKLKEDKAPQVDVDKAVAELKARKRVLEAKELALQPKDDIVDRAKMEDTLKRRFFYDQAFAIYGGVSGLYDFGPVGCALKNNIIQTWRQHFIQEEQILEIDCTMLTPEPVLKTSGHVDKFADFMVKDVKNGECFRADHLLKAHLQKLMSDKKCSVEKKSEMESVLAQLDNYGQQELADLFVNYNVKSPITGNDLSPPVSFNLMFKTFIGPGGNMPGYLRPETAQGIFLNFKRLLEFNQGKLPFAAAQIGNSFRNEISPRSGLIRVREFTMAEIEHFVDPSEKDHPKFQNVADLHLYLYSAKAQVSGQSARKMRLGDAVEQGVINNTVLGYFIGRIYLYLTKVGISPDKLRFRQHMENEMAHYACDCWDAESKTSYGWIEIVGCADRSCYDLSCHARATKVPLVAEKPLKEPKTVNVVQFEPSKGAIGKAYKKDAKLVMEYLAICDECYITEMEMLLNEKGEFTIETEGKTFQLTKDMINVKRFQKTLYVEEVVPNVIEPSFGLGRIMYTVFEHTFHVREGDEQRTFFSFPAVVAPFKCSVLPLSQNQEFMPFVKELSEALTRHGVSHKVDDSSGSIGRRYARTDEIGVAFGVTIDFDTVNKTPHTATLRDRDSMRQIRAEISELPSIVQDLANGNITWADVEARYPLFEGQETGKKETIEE

fold stronger than the Kd for NEDD8 alone [1]: 30 fold | fold stronger than the Kd for Ubc12 alone [1]: 100 fold | pKd [2]: 8.39
Substance: Ubc12^N8: NEDD8-conjugated Ubc12 (C111S, stable ester linkage to His-SUMO-tagged NEDD8) (from UniProt P61081 1-183; Q15843 1-76)
